Measurements: patent US20160222124A1 (published 2016)
Where a chain is given by its changes, count along the chain named.

B1: Antibody A (antibody, human IgG1, kappa, L234A L235A, V domains shown)
VH: EVQLVESGGGLVKPGGSLRLSCAASGFTFSDYGMHWVRQAPGKGLEWVAYISSGNRIIYYADTVKGRFTISRDNAKNSLYLQMNSLRAEDTALYYCARQDGYRYAMDYWAQGTLVTVSS
VL: DIVMTQSPDSLAVSLGERATMSCKSSQSLLNSGNQKNYLTWHQQKPGQPPKLLIYWTSTRESGVPDRFSGSGSGTDFTLTISSLQAEDVAVYYCQNDYTYPLTFGGGTKVEIKR
notes: also called 20E2-12
B2: Antibody B (antibody, V domains shown)
VH: B1 VH with L93V, A110G
VL: B1 VL with R18K, A19V, M21I, S22N
notes: also called 10E2-1
B3: Antibody C (antibody, V domains shown)
VH: QVQLVQSGAEVKKPGASVKVSCTASGFNIKDYYVHWVKQAPGQGLEWMGRIDPEDGDSKYAPKFQGKATMTADTSTSTVYMELSSLRSEDTAVYYCTTSYYVGTYGYWGQGTLVTVSS
VL: DIQMTQSPSSLSASVGDRVTITCSASSSVSYMLWFQQKPGKAPKLLIYSTSNLASGVPSRFSGSGSGTDFTLTISSLQPEDFATYYCQQRTFYPYTFGGGTKVEIKR
notes: also called 2H11-159-94
B4: 4D11 (Kirin/Astellas) anti-CD40 antibody (antibody, V domains shown)
VH: QLQLQESGPGLLKPSETLSLTCTVSGGSISSPGYYGGWIRQPPGKGLEWIGSIYKSGSTYHNPSLKSRVTISVDTSKNQFSLKLSSVTAADTAVYYCTRPVVRYFGWFDPWGQGTLVTVSS
VL: AIQLTQSPSSLSASVGDRVTITCRASQGISSALAWYQQKPGKAPKLLIYDASNLESGVPSRFSGSGSGTDFTLTISSLQPEDFATYYCQQFNSYPTFGQGTKVEIK

Target: T1, cynomolgus monkey CD40 (cynomolgus monkey, UniProt G7PG38 21-278)
T1 construct: whole, on cells; also called Cyno CD40; CD40 on cynomolgus B cells and platelets
Assay: ratio of binding EC50 human/cyno; ratio > 1 means increased binding to Cyno compared to Human

Species cross-react.: Hu/Cyno Binding (EC50 ratios)	Binder
3	B1
2	B2
1	B3

Target: human CD40 (cellular) (human, UniProt P25942 21-277)
Sequence (P25942 21-277): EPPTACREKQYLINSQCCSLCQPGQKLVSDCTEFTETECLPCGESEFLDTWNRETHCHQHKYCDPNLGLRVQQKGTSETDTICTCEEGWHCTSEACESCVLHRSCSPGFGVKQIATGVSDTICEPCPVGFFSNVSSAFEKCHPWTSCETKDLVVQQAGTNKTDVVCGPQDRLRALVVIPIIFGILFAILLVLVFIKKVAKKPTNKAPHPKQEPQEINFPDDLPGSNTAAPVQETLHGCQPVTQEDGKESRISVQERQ
Assay: cell-based or functional assay

B cell proliferation: Agonism (SI*)	Binder
< 2 SI	B1
< 2 SI	B2
< 2 SI	B3
< 2 SI	B4
